Legend:
PCSK9-D374Y-BP15-His6 [1] = biological target: T1, PCSK9-D374Y-BP15-His6 (human, UniProt Q8NBP7 31-692, biotin on the BP15 biotin receiving peptide); test: blocking ELISA, LDLR-FC (SEQ ID NO: 8) coated, bio-PCSK9-Y plus antibody
T1 construct: also called PCSK9-Y; mutant PCSK9
Procedure: The blocking abilities of anti-PCSK9 antibodies to the binding of LDLR-FC (SEQ ID NO: 8) to PCSK9-Y (mutant PCSK9, SEQ ID NO: 6) were detected by measuring the amount of PCSK9-Y binding to LDLR in the presence of the antibodies.
LDLR-FC was diluted to 2 μg/ml with phosphate buffer and coated in the 96-well ELISA plate (Costar, CAT#3590), then incubated at 4° C. overnight. The plate was washed and then blocked with Tris buffer (including 0.9 mM CaCl₂, 0.05% Tween 20 and 5% skim milk) at 37° C. for 2 hours. Then the plate was washed again and 100 μl/well of the mixture of biotin-labeled PCSK9-Y (bio-PCSK9-Y, diluted to final concentration of […] with Tris buffer containing 0.9 mM CaCl₂, 0.05% Tween 20 and 1% skim milk) and antibody samples (diluted with Tris buffer containing 0.9 mM CaCl₂, 0.05% Tween 20 and 1% skim milk) were added and incubated at 37° C. for 1 hour. Then the plate was washed again and horseradish peroxidase-streptavidin (sigma, CAT#S2438) was added and incubated at 37° C. for 1 hour. Then the plate was washed and tetramethylbenzidine solution was added for development. Finally, the stop solution was added and the OD450 value was measured on the Microplate reader, then IC50 was calculated.
The results of blocking test for the blocking effects of the chimeric antibodies and back-mutated antibodies of the present invention on the binding of LDLR-FC/PCSK9-Y are shown in table 7.

PCSK9-BP15-His6 [2] = biological target: T2, PCSK9-BP15-His6 (human, UniProt Q8NBP7 31-692, biotin on the BP15 biotin receiving peptide); test: blocking ELISA, LDLR-FC (SEQ ID NO: 8) coated, bio-WT-PCSK9 plus antibody
T2 construct: It holds a signal peptide (underlined in print); also called WT PCSK9; bio-WT-PCSK9
Procedure: The blocking abilities of PCSK9 antibodies of the present invention to the binding of LDLR-FC (produced in-house, sequence is shown in SEQ ID NO: 8) to PCSK9 (SEQ ID NO: 5) were detected by measuring the amount of PCSK9 binding to LDLR in the presence of the antibodies.
LDLR-FC was diluted to 5 μg/ml with phosphate buffer and coated in the 96-well ELISA plate, then incubated at 4° C. overnight. The plate was washed and then blocked with Tris buffer (including 0.9 mM CaCl₂, 0.05% Tween 20 and 5% skim milk) at 37° C. for 2 hours. Then the plate was washed again and 100 μl/well of the mixture of biotin-labeled PCSK9 (bio-WT-PCSK9, diluted to the final concentration of 2 μg/ml with Tris buffer containing 0.9 mM CaCl₂, 0.05% Tween 20 and 1% skim milk) and antibody samples (diluted with Tris buffer containing 0.9 mM CaCl₂, 0.05% Tween 20 and 1% skim milk) were added and incubated at 37° C. for 1 hour. Then the plate was washed again and horseradish peroxidase-streptavidin (Sigma, CAT#52438) was added and incubated at 37° C. for 1 hour. Then the plate was washed and tetramethylbenzidine solution was added for development. Finally, the stop solution was added and the OD450 was measured on the Microplate reader, then IC50 was calculated.

PCSK9-D374Y-BP15-His6 [3] = biological target: T1, PCSK9-D374Y-BP15-His6; test: ELISA, bio-PCSK9-Y captured on streptavidin plate
Procedure: The binding ability of anti-PCSK9 antibodies of the present invention to PCSK9-Y was detected by measuring the amount of antibodies binding to PCSK9-Y (mutant PCSK9, SEQ ID NO: 6) fixed on the ELISA plate.
Streptavidin (sigma, CAT#54762) was diluted to 2 μg/ml with PBS and coated into 96-well ELISA plate at 4° C. overnight. The plate was washed and then blocked with Tris buffer (including 0.9 mM CaCl₂, 0.05% Tween 20 and 5% skim milk) at 37° C. for 2 hours. Then the plate was washed again and 100 μl/well of the biotin-labeled PCSK9-Y, produced in-house, (bio-PCSK9-Y, diluted with Tris buffer containing 0.9 mM CaCl₂, 0.05% Tween 20 and 1% skim milk) was added and incubated at 37° C. for 1 hour. After the wash step, different concentrations of diluted PCSK9 antibody samples were added to the plate and incubated at 37° C. for 1 hour. Then the plate was washed again and HRP-goat-anti-human (H+L) antibody (Jackson ImmunoResearch, CAT#109-035-088) was added and incubated at 37° C. for 1 hour. Then the plate was washed again and tetramethylbenzidine solution was added for development. Finally, the stop solution was added and the OD450 value was measured on the Microplate reader, and then EC50 was calculated.
The results of ELISA test for the binding ability of chimeric antibodies and back-mutated antibodies of the present invention to mutant PCSK9 are shown in table 6.

PCSK9-BP15-His6 [4] = biological target: T2, PCSK9-BP15-His6; test: ELISA, bio-WT-PCSK9 captured on streptavidin plate
Procedure: The binding ability of anti-PCSK9 antibodies of the present invention to PCSK9 was detected by measuring the amount of antibodies binding to wild-type PCSK9 protein (WT PCSK9, SEQ ID NO: 5) fixed on the ELISA plate.
Streptavidin (sigma, CAT#S4762) was diluted to 2 μg/ml with PBS and coated into 96-well ELISA plate, at 4° C. overnight. The plate was washed and then blocked with Tris buffer (including 0.9 mM CaCl2, 0.05% Tween 20 and 5% skim milk) at 37° C. for 2 hours. Then the plate was washed again and 100 μl/well of the biotin-labeled PCSK9, produced in-house, (bio-WT-PCSK9, diluted with Tris buffer containing 0.9 mM CaCl2, 0.05% Tween 20 and 1% skim milk), was added and incubated at 37° C. for 1 hour. After the wash step, different concentrations of diluted PCSK9 antibody samples was added to the plate and incubated at 37° C. for 1 hour. Then the plate was washed again and HRP-goat-anti-human (H+L) antibody (Jackson ImmunoResearch, CAT#109-035-088) was added and incubated at 37° C. for 1 hour. Then the plate was washed again and tetramethylbenzidine solution was added for development. Finally, the stop solution was added and the OD450 value was measured on the Microplate reader, and then EC50 was calculated.

PCSK9-His6 = biological target: T3, PCSK9-His6 (human, UniProt Q8NBP7 31-692, limits assumed); test: BIAcore, antibody captured by human Fab capture molecule on CM5 chip, PCSK9-His6 in flow
T3 construct: also called human PCSK9 with His tag; huPCSK9
From the text: According to the method described in the Human Fab Capture Kit (Cat. #28-9583-25, GE), the human Fab capture molecule was covalently linked to the CM5 biochip (Cat. # BR-1000-12, GE) so that the antibodies to be tested were affinity captured. Then, human PCSK9 antigen (human PCSK9 with His tag: PCSK9-His6, SEQ ID NO: 1) flowed through the surface of the biochip, and the reaction signal was detected in real time using a Biacore instrument to obtain the association and dissociation curves. Finally, the affinity values were obtained by fitting and are shown at table 9 below. After each cycle of dissociation was finished in the experiment, the biochip was washed and regenerated with regeneration solution in Human Fab Capture kit (GE).

| IC50 (PCSK9-D374Y-BP15-His6 [1]) [µg/mL] | IC50 (PCSK9-BP15-His6 [2]) [µg/mL] | EC50 (PCSK9-D374Y-BP15-His6 [3]) [µg/mL] | EC50 (PCSK9-BP15-His6 [4]) [µg/mL] | Kd (PCSK9-His6) [nM] | Binder |
| --- | --- | --- | --- | --- | --- |
| 0.392 | 0.836 | 0.0132 | 0.0084 | – | Ch-001 (antibody, V domains shown, also called chimeric antibody) VH: QVHLQQSGAELAKPGASVKLSCKASGYTFNDYWMHWVKERPGQGLEWIGYINPSSGFTKYHQNFKDKATLTADKSSSTAYMQLSSLTYDDSAVYYCARQYDYDEDWYFDVWGTGTTVTVSS VL: DIVMSQSPSSLAVSAGEKVTMSCKSSQSLLNSRTRKNFLAWYQQKPGQSPKLLIYWASTRESGVPDRFTGRGSGTDFTLTISSVQAEDLAVYYCKQSFNLFTFGSGTKLEIK |
| 0.53 | 0.76 | 0.0179 | 0.012 | 0.288 | h001-4-WT (antibody, both labels are treated as one molecule; also called H001-4 IgG1 format; h001_VH.1 + h001_VL.1C) heavy: not shown light: DIVMSQSPSSLSASVGDRVTITCKSSQSLLNSRTRKNFLAWYQQKPGKSPKLLIYWASTRESGVPDRFSGSGSGTDFTLTISSLQPEDFATYYCKQSFNLFTFGQGTKLEIKRTVAAPSVFIFPPSDEQLKSGTASVVCLLNNFYPREAKVQWKVDNALQSGNSQESVTEQDSKDSTYSLSSTLTLSKADYEKHKVYACEVTHQGLSSPVTKSFNRGEC |
| – | – | – | – | 0.491 | h001-4-YTE (antibody, human IgG1, kappa, human kappa light chain; also called h001-4-IgG1-YTE) heavy: QVQLVQSGAEVKKPGASVKVSCKASGYTFTDYWMHWVRQAPGQGLEWMGYINPSSGFTKYHQNFKDRVTMTRDTSISTAYMELSRLRSDDTAVYYCARQYDYDEDWYFDVWGQGTTVTVSSASTKGPSVFPLAPSSKSTSGGTAALGCLVKDYFPEPVTVSWNSGALTSGVHTFPAVLQSSGLYSLSSVVTVPSSSLGTQTYICNVNHKPSNTKVDKKVEPKSCDKTHTCPPCPAPELLGGPSVFLFPPKPKDTLYITREPEVTCVVVDVSHEDPEVKFNWYVDGVEVHNAKTKPREEQYNSTYRVVSVLTVLHQDWLNGKEYKCKVSNKALPAPIEKTISKAKGQPREPQVYTLPPSRDELTKNQVSLTCLVKGFYPSDIAVEWESNGQPENNYKTTPPVLDSDGSFFLYSKLTVDKSRWQQGNVFSCSVMHEALHNHYTQKSLSLSPGK light: DIVMSQSPSSLSASVGDRVTITCKSSQSLLNSRTRKNFLAWYQQKPGKSPKLLIYWASTRESGVPDRFSGSGSGTDFTLTISSLQPEDFATYYCKQSFNLFTFGQGTKLEIKRTVAAPSVFIFPPSDEQLKSGTASVVCLLNNFYPREAKVQWKVDNALQSGNSQESVTEQDSKDSTYSLSSTLTLSKADYEKHKVYACEVTHQGLSSPVTKSFNRGEC |
| 0.514 | 0.829 | 0.0209 | 0.0176 | – | h001-10 (antibody, human IgG1, V domains shown, Variable regions only; also called h001_VH.1B + h001_VL.1A) VH: QVQLVQSGAEVKKPGASVKVSCKASGYTFTDYWMHWVRQAPGQGLEWMGYINPSSGFTKYHQNFKDRVTMTRDTSISTAYMELSRLTSDDTAVYYCARQYDYDEDWYFDVWGQGTTVTVSS VL: DIQMTQSPSSLSASVGDRVTITCKSSQSLLNSRTRKNFLAWYQQKPGKAPKLLIYWASTRESGVPDRFSGSGSGTDFTLTISSLQPEDFATYYCKQSFNLFTFGQGTKLEIK |

Source: US20190016825A1 (JIANGSU HENGRUI MEDICINE, published 2019)
